Each block holds one molecule with its values, some of them ahead of it.
Legend:
[1] = test system: 293T-Blue^TLR3/PSCA reporter cells; assay: NFkappaB activation, SEAP reporter, PSCA-positive cells; format: cell-based
Protocol: The target delivery of TLR3 agonist Riboxxol® to the endosomal compartment of PSCA-positive cells and the resulting NFkappaB activation and induction of apoptosis by the use of the BIC delivery system was investigated using 293T-Blue^TLR3/PSCA reporter cells. 50.000 293T-Blue^TLR3/PSCA cells in 200 μl HEKBlue detection medium were plated in 96 well plates and treated with increasing concentrations of BICs containing RIBOXXOL® and scFv(h-AM1)-BAP or were treated with BICs containing Riboxxol® and scFv(MR1.1)-BAP, which should not bind to the PSCA-positive target cells. The induced secretion of the reporter SEAP, or its enzymatic activity in HEK Blue medium was measured at 655 nm in an ELISA reader after 24 h. […] […] A plateau of activation is reached at a concentration of the anti-PSCA immunoconjugate at 25 nM. […] Apoptosis levels of treated cells were normalized to untreated 293T-Blue^TLR3/PSCA cells by subtracting basal apoptosis levels from induced apoptosis-levels in the treatment groups.

[2] = test system: 293T^EGFRvIII/c-Luc cells; assay: Luciferase knockdown by scFv-P-BAP guided polyplexes; format: cell-based; conditions: inhibitor added 4 h prior transfection
Protocol: As positive RNAi control, cells were transfected with siLuc3 using the transfection reagent Interferin®. For investigating the route of internalization, endocytose inhibitors 0.6 μg/ml filipin III and 6 μg/ml chlorpromazine (both Sigma Aldrich) were added 4 h prior transfection of cells.

EGFRvIII = biological target: T1, EGFRvIII (Homo sapiens, UniProt P00533, DELINS30-297G); assay: Flow cytometry binding of scFvs to 293T^EGFRvIII cells; conditions: 1 μg scFv
T1 construct: expressed in transfected cells; host or cells: 293T cells with ectopic EGFRvIII (293T^EGFRvIII)
Protocol: To investigate scFv(MR1.1)-P-BAP binding to EGFRvIII-293T target cells with ectopic expression of the cognate surface receptor, 2×10^5 cells were incubated with 1 μg of recombinant scFv and scFv-P-BAPs, respectively. The bound antibodies were detected either via their myc-epitope using anti-myc/FITC antibody or via their biotin residue using anti-biotin/PE antibody (1:10; Miltenyi Biotec, Bergisch Gladbach, Germany). Cells stained only with secondary antibody were included as a control. […] At least 10,000 stained cells were measured by flow cytometry (MACSQuant, Miltenyi Biotec, Bergisch Gladbach, Germany) and analyzed by FlowJo software version 7.6.5 (TreeStar Inc., Ashland, USA).

avidin = avidin (Gallus gallus, UniProt P02701); assay: Conjugation of biotinylated scFvs to avidin, Western blot; format: binding; conditions: molar ratios from 1:1 to 4:1
Protocol: Conjugation of recombinant biotinylated single chain antibodies was investigated in Western blot experiments. For this 10.7 pmol of recombinant scFv-P-BAP and scFv-BAP was incubated for 30 min at RT with […] as depicted in FIG. 11c for scFv(MR1.1)-P-BAP and FIG. 12 for scFv(MR1.1)-BAP and scFv(h-AM1)-BAP. The avidin/scFv-BAP complexes were subjected to non-reducing SDS-PAGE. After protein transfer onto a Westran PVDF membrane (Whatman GmbH, Dassel, Germany), proteins were detected by a monoclonal murine c-myc-specific antibody (1:5,000, Invitrogen, Carlsbad, USA) and a HRP-labeled rabbit anti-mouse secondary antibody (1:1,000; Dako, Glostrup, Denmark), and after stripping of the membranes by a HRP-conjugated biotin-specific antibody (1:8,000; Sigma-Aldrich, St. Louis, USA). Membranes were visualized and documented using the Luminata Classico Western HRP substrate (Merck Millipore, Darmstadt, Germany) and the imaging system LAS3000 (FujiFilm Europe, Düsseldorf, Germany).

293T^EGFRvIII cells = assay: EGFRvIII receptor internalization, FACS; format: cell-based; conditions: crosslinking with scFv plus anti-myc-antibodies, 2 h to 48 h
Protocol: (§1) For studies of EGFRvIII and PSCA internalization, 293T^EGFRvIII and 293T^PSCA cells, respectively, were carefully detached with Trypsin/EDTA solution (Sigma/Aldrich). After repeated washing in 1 mg/ml BSA/PBS, 2×10^5 cells were fed with fresh medium and plated in 96 round bottom wells. Crosslinking of receptors was accomplished by incubation with 1 μg parental scFv specific for the cognate receptor for 1 h at 4° C. followed by extensive washing with PBS and treatment with 0.5 μg of biotin-labelled anti-myc antibody (Miltenyi Biotech) for 10 min at 4° C., followed by extensive washing with PBS and feeding with fresh medium. To achieve a monovalent binding of receptors, the 293T^EGFRvIII and 293T^PSCA cells were incubated only with scFv(MR1.1) and scFv(AM1), respectively, for 1 h at 4° C., followed by extensive washing with PBS and feeding with fresh medium. EGFRvIII surface expression was monitored after incubation at 37° C. in a humidified CO2 incubator after 2 h, 4 h, 8 h, 24 h, and 48 h utilizing an anti-biotin-PE antibody (Miltenyi Biotech) for the crosslinked receptors and incubation of biotinylated anti-myc antibody for 10 min at 4° C. followed by anti-biotin-PE antibody staining for 10 min at 4° C., for cells with monovalent binding of receptors. All obtained data were analyzed by FlowJo software version 7.6.5 (TreeStar Inc., Ashland, USA).

EGFRvIII neo-epitope = EGFRvIII neo-epitope (Homo sapiens, UniProt P00533, DELINS30-297G); conditions: cited from earlier work
wild type EGFR = wild type EGFR (Homo sapiens, UniProt P00533); conditions: cited from earlier work
tumors = conditions: in vivo; cited from earlier work
PSCA = biological target: T2, PSCA (Homo sapiens, UniProt O43653); assay: Binding affinity (KD) by flow cytometry on 293T^PSCA cells; conditions: FIG. 9
T2 construct: expressed in transfected cells; host or cells: 293T^PSCA cells
T2 sequence (O43653 12-83): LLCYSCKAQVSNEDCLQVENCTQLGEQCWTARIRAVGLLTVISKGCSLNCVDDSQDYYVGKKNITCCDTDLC
Protocol: For determination of binding affinity, murine scFv(AM1) and the humanized scFv(h-AM1) were incubated in descending concentrations with 293T^PSCA cells. After detection with a secondary anti-myc-PE-antibody the MFIs were determined using a MACSQuant Cytometer (Miltenyi Biotech) and FlowJo software and the Kd values were calculated with the PRISM software program. FIG. 9 depicts the graphs for the KD value calculations.

293T^PSCA cells = assay: PSCA receptor internalization, FACS; format: cell-based; conditions: crosslinking with scFv plus anti-myc-antibodies, 2 h to 48 h
Protocol: as §1

avidin, sequence (P02701 25-152): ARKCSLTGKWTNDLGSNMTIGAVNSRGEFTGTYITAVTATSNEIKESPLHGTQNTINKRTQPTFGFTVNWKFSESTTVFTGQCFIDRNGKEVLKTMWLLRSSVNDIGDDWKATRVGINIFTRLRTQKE

Molecule: CN(C)CCCN1c2ccccc2Sc2ccc(Cl)cc21 [chlorpromazine, reference compound]
inhibition of chlatrin-mediated endocytosis of BICs ([1]; 31 μg/ml of chlorpromazine): effectively inhibited

Molecule: CCCCC[C@@H](O)[C@H]1C(=O)O[C@H](C)[C@@H](O)/C=C/C=C/C=C/C=C/C=C(\C)[C@@H](O)C[C@H](O)C[C@H](O)C[C@H](O)C[C@H](O)C[C@H](O)C[C@@H]1O [filipin III, reference compound]
effect of endocytosis inhibitor on delivery of EGFRvIII-specific polyplexes [2]: inhibited
effect on induction of the reporter SEAP by BICs ([1]; 0.3 μg/ml filipin III): slightly weakened induction

B2: scFv(MR1.1): EGFRvIII-specific single chain fragment variable from the literature [30, 31] (protein)
scFv: QVKLQQSGGGLVKPGASLKLSCVTSGFTFRKFGMSWVRQTSDKRLEWVASISTGGYNTYYSDNVKGRFTISRENAKNTLYLQMSSLKSEDTALYYCTRGYSPYSYAMDYWGQGTTVTVSSSGGGSGGGGSGGGGSDIELTQSPASLSVATGEKATIRCMTSTDIDDDMNWYQQKPGEPPKFLISEGNTLRPGVPSRFSSSGTGTDFVFTIENTLSEDVGDYYCLQSWNVPLTFGDGTKLEIT
modifications: left off: small tags and cut ends
EGFRvIII internalization (293T^EGFRvIII cells): time-dependent
affinity to EGFRvIII neo-epitope (EGFRvIII neo-epitope): high affinity
cross-reaction with wild type EGFR (wild type EGFR): does not cross-react
retention in tumors (tumors): excellent retention

Now from value to molecule, other results behind:

binding to EGFRvIII-positive 293T^EGFRvIII cells (EGFRvIII): bind
conjugation to avidin (avidin): efficiently conjugated
B1: scFv(MR1.1)-P-BAP: scFv(MR1.1) fused to PSTCD biotin acceptor peptide, SEQ ID NO: 3 (protein)
scFv: METDTLLLWVLLLWVPGSTGDAAQPARRARRTKLGTELGSHMQVKLQQSGGGLVKPGASLKLSCVTSGFTFRKFGMSWVRQTSDKRLEWVASISTGGYNTYYSDNVKGRFTISRENAKNTLYLQMSSLKSEDTALYYCTRGYSPYSYAMDYWGQGTTVTVSSSGGGSGGGGSGGGGSDIELTQSPASLSVATGEKATIRCMTSTDIDDDMNWYQQKPGEPPKFLISEGNTLRPGVPSRFSSSGTGTDFVFTIENTLSEDVGDYYCLQSWNVPLTFGDGTKLEITKLSSKLKVTVNGTAYDVDVDVDKSHENPMGTILFGGGTGGAPAPAAGGAGAGKAGEGEIPAPLAGTVSKILVKEGDTVKAGQTVLVLEAMKMETEINAPTDGKVEKVLVKERDAVQGGQGLIKIGDLELIEGSSGPEQKLISEEDLNSAVDHHHHHH
modifications: Single chain antibody fragment

binding to EGFRvIII-positive 293T^EGFRvIII cells (EGFRvIII): did not recognize
B3: scFv(AM1): murine 7F5-derived single chain antibody fragment specific for prostate stem cell antigen (PSCA) (protein, listed as Mus musculus)
scFv: METDTLLLWVLLLWVPGSTGDAAQPARRARRTKLGTELGSQVKLQESGGGLVQPGGSLKLSCVASGFTFSSYTMSWVRRTPEKRLEWVAYIHNGGGHTYYPDTIKGRFTISRDNAKNTLFLEMSSLKSEDTAMYYCTRRMYYGNSHWYFDVWGAGTSVTVSSAKTTPPSVYGGGGSGGGGSGGGGSTNSDIVMTQSPSSLSASLGDRVTINCRTSQDISNYLNWYQLTPDGTVKLLIYYTLKLNSGVPSRFSGSGSGTDYSLTINNLEKEDFATYFCQQSKTLPWTFGGGTKLEIKRADAAPTVSGPKLSSKLKVTVNGTAYDVDVDVDKSHENPMGTILFGGGTGGAPAPAAGGAGAGKAGEGEIPAPLAGTVSKILVKEGDTVKAGQTVLVLEAMKMETEINAPTDGKVEKVLVKERDAVQGGQGLIKIGDLELIEGSSGPEQKLISEEDLNSAVDHHHHHH

binding to EGFRvIII-positive 293T^EGFRvIII cells (EGFRvIII): did not recognize
B4: scFv(AM1)-P-BAP: scFv(AM1) fused to PSTCD biotin acceptor peptide, SEQ ID NO: 1 (protein, listed as Mus musculus)
scFv: B3 scFv

affinity to PSCA compared to parental murine scFv (PSCA): improved affinity
B5: scFv(h-AM1): humanized PSCA-specific scFv with c-Myc-Tag, Bio-Tag BAP and His6, SEQ ID NO: 2 (protein)
scFv: METDTLLLWVLLLWVPGSTGDAAQPARRARRTKLGTELGSEVQLLESGGGLVQPGGSLRLSCVASGFTFSSYTMSWVRQAPGKGLEWVSYIHNGGGHTYYADSVKGRFTISRDNSKNTLYLQMNSLRAEDTAVYYCTRRMYYGNSHWYFDVWGAGTRVTITSAKTTPPSVYGGGGSGGGGSGGGGSTNSDIQMTQSPSSLSASVGDRVTITCRTSQSISNYLNWYQQKPGKAPKLLIYYTLKLNSGVPSRFSGSGSGTDFTLTISSLQPEDFATYYCQQSKTLPWTFGGGTKLEIKRADAAPTVSGPEQKLISEEDLNSAVDMSGLNDIFEAQKIEWHEGAPSSHHHHHH
modifications: Humanized antibody
PSCA internalization (293T^PSCA cells): time-dependent

From patent publication US11504432B2, “Delivery system for targeted delivery of a therapeutically active payload” (TECHNISCHE UNIVERSITÄT DRESDEN, priority 2016, dated 2022)
